Experimental data published in US20150299285A1.
Where two headings read alike, the source gives them in different places.

Key:
[1] = target: insulin receptor subtype A (human) (UniProt P06213); experiment: IR-A Binding, competition with 125I-insulin
[2] = target: insulin receptor subtype A (human) (UniProt P06213); experiment: cell-based or functional assay
[3] = target: insulin receptor subtype B (human) (UniProt P06213); experiment: cell-based or functional assay
[4] = target: insulin receptor subtype A (human) (UniProt P06213); experiment: cell-based or functional assay; remark: listed apart in the source
[5] = target: insulin receptor subtype B (human) (UniProt P06213); experiment: cell-based or functional assay; remark: listed apart in the source

IC50 [1]: 18.8 nM
EC50, Receptor Phosphorylation [2]: 6.48 nM
EC50, Receptor Phosphorylation [3]: 32.2 nM
EC50, IR-A Phosphorylation [4]: 29.2 nM
EC50, Receptor Phosphorylation [4]: 10 nM
EC50, phosphorylation (FIG. 18A) [4]: 2.24 nM
IC50 (so named in p-1063), Phosphorylation at Insulin Receptor Subtype A [4]: 146 nM
EC50, Receptor Phosphorylation [5]: 16.6 nM
EC50, phosphorylation (FIG. 18B) [5]: 32.4 nM
IC50 (so named in p-1063), Phosphorylation at Insulin Receptor Subtype B [5]: 19.7 nM
Substance: native IGF-1 (from UniProt P05019 49-118) (ligand)
